In patent WO2006003999A1 (dated 2006):

T1: human B7RP-1-Fc (human, UniProt O75144 19-256, limits assumed)
T1 construct: not shown: Fc part
T1 sequence (looked up): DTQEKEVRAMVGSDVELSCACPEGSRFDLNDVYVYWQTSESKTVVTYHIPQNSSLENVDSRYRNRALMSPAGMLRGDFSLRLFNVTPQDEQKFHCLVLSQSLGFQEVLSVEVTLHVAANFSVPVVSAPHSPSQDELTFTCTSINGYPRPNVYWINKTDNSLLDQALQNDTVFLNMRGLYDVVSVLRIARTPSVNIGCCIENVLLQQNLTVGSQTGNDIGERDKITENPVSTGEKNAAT

B1: human anti-human B7RP-1 single-chain Fv antibody clone 223 (scFv, part only; not given: linker and E tag, not shown: small tags and cut ends)
scFv, part: EVQLLQSGADVKKPGASVKVSCTASGYTFTAYYLNWVRQAPGQGLEWMGWLNPTSGDTYYAQKFQGRVTMTRDTSINTAYMELSSLKSDDTAVYYCARDIRSIEVPFDLWGQGTLVTVSSGIVLTQSPGTLSLSPGERVALSCRASQSVTSSFVAWYQQKPGQTPRLLVYGASSRVPGIPDRFSGNGSGTDFTLTITRLEPEDFAIYYCQYYGDSPYTFGQGTKVDIKR
B2: ICOS-Fc (Fc fusion, human, UniProt Q9Y6W8 21-140, looked up)
chain: EINGSANYEMFIFHNGGVQILCKYPDIVQQFKMQLLKGGQILCDLTKTKGSGNTVSIKSLKFCHSQLSNNSVSFFLYNLDHSHANYYFCNLSIFDPPPFKVTLTGGYLHIYESQLCCQLK
notes: also called ICOS (Inducible costimulator) Fc fusion; biotin-labeled ICOS-Fc; not shown: Fc part

Tests used:
human B7RP-1-Fc [1] = biological target: T1, human B7RP-1-Fc; assay: SPR (BIAcore), B7RP-1-Fc immobilised on CM5 or captured by anti-human Fc F(ab')2, scFv injected at 100 nM
human B7RP-1-Fc [2] = biological target: T1, human B7RP-1-Fc; assay: SPR (BIAcore), ICOS-Fc immobilised on CM5, B7RP-1-Fc injected

Binder | Kd (human B7RP-1-Fc [1]) [nM] | Kd (human B7RP-1-Fc [2]) [nM]
B1 | 13 to 15 | 
B2 |  | ~7
